# Experimental data reported in the nanobody polyreactivity screen of Harvey et al. (2022).
# Assay: yeast display, Sf9 membrane polyspecificity reagent, FACS + sequencing; frameworks hold sequencing errors
# Procedure, shortened: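 Nanobodies from a synthetic yeast display library (Saccharomyces cerevisiae BJ5465), induced 36–48 hours with galactose, were stained 1 hour at 4 °C with 10% biotinylated, detergent-solubilized Sf9 membrane reagent, enriched on streptavidin microbeads, then FACS-sorted. Anti-HA (expression) and streptavidin (reagent binding) fluorescence set low and high (top ~1%) gates. Polyreactivity labels come from the gate of origin. Genes were colony-PCR amplified, MiSeq 2 × 250 sequenced and filtered by CDR length.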
row,Sequence,polyreactivity (PSR sort gate)
1,QVQLVESGGGLVQAGGSLRLSCAASGNTFYRNAMGWYRQAPGKDRELVAAIDYGGSTTYYADSVKGRFTISRDNSKNTVYLQMNSLKPEDTAVYYCAAREYRIGHVQPMDYWGQGTQVTVSS,high polyreactivity
2,QVQLVESGGGLVQAGGSLRLSCAASGSIFDRYAMGWYRQAPGKERELVAAITTSGGSTSYADSVKGRYTISRDNAKNTVYLQMNSLIPEDTAVYYCAAGYDYVFAFLNEYDYWGQGTQVTVSS,low polyreactivity
3,QVQLVESGGGLVQAGGSLRLSCAASGSIFSRNAMGWYRQAPGKEREFVARISWSSTSTNYADSVKGRFTISRDNAKNTVYLQMNSLKPEDTAVYYCAADFRGDRRFDYWGQGTQVSVSS,low polyreactivity
4,QVQLVETGGGLVQAGGSLRLSCAASGSIFTKYAMGRYRQAPGKERELVAAISWSGVSTYYADSVKGRFTISRDNAKNTVYLLMNSLKPEDTAVYYCNTRRYRSYGTTRYCFWGQGTQVTVSS,high polyreactivity
5,QVQLVESGGGLVQAGGSLRLSCAASGSIFNDNVMGWYRPAPGKERELVAGISRSGTRTYYADSVKGRFTISRDNAKNTVYLQMNSLKPEDNAVYYCAAAYGQARRYNGSQYGSWGQGTQVTVSS,high polyreactivity
6,QVQLVESGGGLVQAGGSLRLSCAASGSTFTGNAMGWYRPAPGKERELVADITWSDGSTDYADSVKGRFTISRDNAKNTVYLQMNSLKPDDTAVYYCNARITYYVGTAWYDYWGQGTQVTVSS,low polyreactivity
7,QVQLVESGGGLVQAGGSLRLSCAASGRIFYGYAMGWYRQAPGKERELVAGISYRGARTYYADSVKARFTISRDNAKNTVYLQMNSLKPEDTAVYNCNAVPYYPFAFGALDYSGQGTQVTVSS,high polyreactivity
8,QVQLVESGGGLVQAGGSLRLSCAASGRIIGGNAMGWYRPAPGKEREFVAAIRASGGSTHYADSVKGRFTISRDNAKNTVYLQMNSLKPEDTAVYYCNTYRARLGTTFIDYDYWGQGTQVTVSS,high polyreactivity
9,QVQLEESGGGLVQAGGSLRLSCAASGSILIYNAMGLYRQATGKERELVAGISRRGASTYYADSVKGRFTISRDYAKNTVYLQMNSLKPEDTAVYYCATRKLRTRGYDYGYWGQGTQVTVSS,low polyreactivity
10,QVQLVESGGGLVQAGGSLRLSCAASGRNFEKNAMGWSRQAPGKERELVASIDFRGGRTYADSVKGRFTISRDNAKNTVYLQMISLKPEDTAVYYCAKRQVGRKYVRYEYDSWGHGTQVTVSS,low polyreactivity
11,QVQLVESGGGLVQAGGSLRLSCAASGRTFTRYAMGWYRQAPGKERELVAAISRGGSTYYADSVKGRFTISRDNAKNTVYLQMNSPKPEDTAVYYCAARYGTYTAGNYWGQGTQVTVSS,high polyreactivity
12,QVQLVESGGGLVQAGGSLRLSCAASGFTFFIYVMGWYRQAPGKEREFVAAISSSGDSTYYADSVKGRFTSSRDNAKNTVYLQMNSLKPEDTAVYYCNAGDKVSSYWYDYWGQGTQVTVSS,low polyreactivity
13,QVQLVESGGGLFQAGGSLRLSCAASGFIFARNAMSWYRQAPGKERELVAAISRNGGRTSYADSVKGRFTISRDNAKNTVYLQMNSMKAEDTAVYYCAKSQGYVSWTGAYSYDYWGQGTQVTVSS,high polyreactivity
14,QVQLVESGGGLVQAGGSLRLSCAASGSTFYTNAMGWYRQAPGKERELVAASNYSGGSTYYADSVKGRFTISRDNAKNTVYLQMNSLKPEDTAVYYCATDLHWLVTKYGYWGQGTQVTVSS,low polyreactivity
15,QFQLVESGGGLVQAGGSLRLSCSSSGSIFGAYDMGWYRQAPGKERELVAAITSVGSTYYADSVKGRFTISRDNAKNTVYLQMNSLKPEDTAVYDCAKRQWRPTYRYGYWGQGTQVTVSW,low polyreactivity
16,QVQLVESGGGLVQAGGSLRLSCAASGRIFTTYAMGWYRQAPGKERELVAAISRSGGSTYYADSVKGRFTISRDNAKNTVYLQMNSLKPEDTAVYYCAAVPTSNSFRSSFYYWGQGTEVTVSS,high polyreactivity
17,QVQLVESGGGLVQAGGSLRLSCAASGRTFWNYAMGWSRQAPGKERELVAVIRFSDGSTYYADSVKGRFTISRDNAKNTVYLQMNSLKPEDTAVYYCAAKGPRRWGSGFDYWGQGTQVTVSS,low polyreactivity
18,QVQLVESGGRLVQAGGSLRLSCAASGRIFAAYAMGWYRQAPGKEREFVAGITRTGGSTYYADSVKGRFTISRDHAKNTVYFQMNSLKPEDTAVYYCAASLVYYGHAYNYWGQGTQVTVSS,high polyreactivity
19,QVQLVESGGGLVQAGGSLRLSCAASGGILSDYAMGWYRQAPWKERELVAAITISGGRTNYADSVKGRFTISRDNAKNTVYLQMNSLKPEDTAVYYCAAGFYPYYYWGQGTQVTVSS,low polyreactivity
20,QVQLVESGGGLVQAGGSLRLSCAASGSIFDIYAMGWYRQAPGKERELVAAISLSAGSTYYADSVKGRFTISRDNAKNTVYLQMNSLKPEDTAVYYCAKDFFEHSPVSHTYSSSKYDYWGQGTQVTVSS,low polyreactivity
21,QDQLVESGGGLVHAGGSLRLSCAASGSTFSIYAMGWYRQAPGKERELVAAIPYSGGSTYYADSVKGRFTISRDNAKNTVYLQMHSLKPEDTAVNYCAAEVYDSRWWYSGATDDYWGQGTQVSVSS,high polyreactivity
22,QVQLVESGGGLVQAGGSLRLSCPASGFTILDYAMGWYRQAPGKEREMVATINWSDVSTYYADSVKGRFTISRDTAKNTVYLQMNSLKPEDTAVYYCAVDVLTVGQSYDHWGQGTQVTVSS,high polyreactivity

row,Sequence,polyreactivity (PSR sort gate)
1,QVQLVESGGGLVQAGGSLRLSCAASGRTFYTYVMGWYRQAPGKEREFVAAITYSGGSTYYADSVKGRFTISRDNAKNTVYLQMNSLKPEDTAVYYCNAEWTYSEWYGQYLEFDYWGQGTQVTVSS,high polyreactivity
2,QVQLVESGGGLVQAGGILRLSCAASGSTFVRYVMVWYRQAPGKERELVAAISRRGGSTYYADSVKGRFTISRDNAKNTVYLQMNSLKPEDTAVNYCARTVGYRTLLESDSWGQGTQVTVSS,high polyreactivity
3,QVQLVESGGGLVQAGGSLRLSCAASGSIFFLYAMGWYRQAPGKERELVAAISLSTGNTYYADSVKGRFTISRDNAKNTVYLQMNSLKPEDSAVYYCAATYVSISYRYDYWGQGTQVTVSS,high polyreactivity
4,QVQLVESGGGLVQAGGSLRLSCAASGFIFQPYAMGWYRQAPGKERELVAAITSRGGRTYYADSVKGRITISRDNAKNTVYLQMNSLKPEDTAVYYCNADIYASEYYYWGQGTQVTVSS,low polyreactivity
5,QVQLVESGGGLVQAGGSLRLSCAASGSIFRGNALGWYRQAPGKERELVATITNGGSTNYADSVKGRFTISRDNAKNTVYLQMNSLKPEDTAVYSCNADHSYHIASTRHVDYWGQGNQVTVSS,low polyreactivity
6,QVQLEESGGGLVQAGGSLRLSCAASGRTFITYAMGWYRQAPGKVRELVASITSNGGRTYYADSVKGRFKISRDNAKNTVYLQMNSLKPEYTAVYYCSAGTRSRAPYYRTSVDTYGYWGQGTQVTVSS,low polyreactivity
7,QVQLVESGGGLVQAGGSLRLSCAASGRTFYYYAMGWYRQAPGKERELVASITFSGGRTYYADSVKGRFTISRDNAKNTVYLQMNSLKPEDTAVYYFARPYYGRYYPNYGVTGVDYWGQGTQVTVSS,high polyreactivity
8,QVQLVESGGGLVQAGGSLRLSCAASGSIFNRYAMGWYRQAPGKERELVAVIRWRDGSTYYADSVKGRFTISRDNAKNTVYLQMNSLKPEDTAVYYCAAVYWGEEYEYWGQGTQVTVSS,low polyreactivity
9,QVQLVEAGGGLVQAGGSLRFSCAASGSLFRWYAMGWYRQAPGKERELVAAINRGGDSTYYADSVKGRFTISRDNAKNTVYLQMNSLKPEDTAVYYCNAVSSWKLLYSSYDSWGQGTQVTVSS,high polyreactivity
10,QVQLVESGGGLVQAGGSLRLSCASSGSTFRKNTMGWYIPAPGKEREFVAAISRSGGSTYYADSVKGRFTISRDNAKNTVYLQMNSLKPEDTAVYYCAASYYPHQYSYELGDYWGQGTQVTVSS,low polyreactivity
11,QVQLVESGGGLVQAGGSLRLSCAASGIISGDYAMGWYRQAPGKERELVARITSGDSTNYADSVKGRFTISRDNAKNTVYLQMNSLNPEDTAVYYCAADRVWAYWTYGYWGQGTQVTVSS,low polyreactivity
12,QVQLVESGGGLVQAGGSLRLSCAASGRIFSTNAMGWYRQAPGKERELVARINSGGGSTYADSVKGRFTISRDNAKNTVYLQMNSLKPEDTAVYYCAASRRFQWRAYGYWGQGTQVTVSS,high polyreactivity
13,QVHLVESGGGLVQAGGSLRLSCAASGIIFGRFTMGWYRQAPGKERELVAAITSSGITYYADSLKGRFTISRDNAKNTVYLQMNSLKPEDTAVSYCNADYSIPGYYWPFDYWGQGTQVTVSS,low polyreactivity
14,QVQLVESGGGLVQAGGSLRLSCAASGRTFGGYAMGWYRQAPGKERELVAAIRWSGGSTYYADSVKGRFTISRDNAKNTVYLQMNSLKPEDTAVYNCAARSHTSADGGRYYYWGQGTQVTVSS,high polyreactivity
15,QVQLVESGGGLVQAGGSLRLSCAASGSTLAVYAMGWYRQAPGKEREFFAAISWSGVSTYYADSVKGRFTISRDNAKNTVYLQMNSLKPEDTAVYYCAAKRVRALYGGSEGGYWGQGTQVTVSS,low polyreactivity
16,QVQLVESGGGLVQAGGSLRLSCAASGRIFKGYVMGWYRQAPGKERELVAAISKSGGRTYYADPVKGRFTISRDNAKNTVYLQMNSLKPEDTAVYYCNAVGVVTYSFYYWGQGTQVTVSS,high polyreactivity
17,QVQLVESGGGLVQAGGSLRLSCAASGSTFKSYAMGWYRQAPGKERELVAAINWSGGSTYYADSVKGRFTISRDNAKNTVYLQMTSLKPEDTAVYYCNAVYAVRSYDSWGQGTQVTVSS,high polyreactivity
18,QVQLVESGGGLVQAGGSLRLSCAASGSTFRPYAMGWYREAPGKERELVAAITSTGGSTYYADSVKGRFTISRDNAKNSVSLQMNSLKPDDTAVYYCAAPLVRYAGPYDYWGQGTQVTVSS,low polyreactivity
19,QVQLVESGGGLVQAGGSLRLSCAASGSTYYFYPMGSYRQAPGKERELVAAISFTDTSTYYADSVQGRFTISRDNAKNTVYLQMNSLKPEDTAVYYCAARYAGGYYYWGQGTQVTVSS,high polyreactivity
20,QVQLVESGGGLVQAGGSLRLSCAASGLPFRDYAMGWYRQAPGTERELVAAISDGDDSTSYADSVKGRFTSSRDNAKTTGYLQMNSQNPEDTAVYDCAPYLSDPDFLAGIYGLYNYWGQGTQVTVSS,low polyreactivity
21,RVQLVESAGGLLQAGGSLRLSCAASGRTFTLYAMGWDRQAPGKDRELVAAIRWSGSSTYYADSVKGRFTISRDYAKHTVYLQINSLKPEATAVYYCAARAGRYERYGYWGQGTQVTVSS,high polyreactivity
